{
  "source": "IntAct's records for PubMed 19040637",
  "parents": {"B1": {"name": "Probable glutaredoxin ssr2061 (Synechocystis sp. (strain PCC 6803 / Kazusa)), P73492 (parent)", "chain": "MAVSAKIEIYTWSTCPFCMRALALLKRKGVEFQEYCIDGDNEAREAMAARANGKRSLPQIFIDDQHIGGCDDIYALDGAGKLDPLLHS", "partner": "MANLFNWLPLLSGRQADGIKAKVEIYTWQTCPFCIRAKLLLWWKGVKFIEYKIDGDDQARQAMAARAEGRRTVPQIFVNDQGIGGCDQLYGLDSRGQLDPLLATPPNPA"}, "B2": {"name": "Probable glutaredoxin slr1562 (Synechocystis sp. (strain PCC 6803 / Kazusa)), P74593 (parent)", "chain": "B1 partner", "partner": "B1 chain"}},
  "data": [
    {"variants_of": "B1", "conditions": "with glrx1_syny3 glrx1, P74593", "values": [
      {"variant": "MAVSAKIEIYTWSTCPFCMRALALLKRKGVEFQEYSIDGDNEAREAMAARANGKRSLPQIFIDDQHIGGCDDIYALDGAGKLDPLLHS", "note": "[C36S]", "effect of a mutation on the interaction": "decreasing interaction strength"},
      {"variant": "MAVSAKIEIYTWSTCPFCMRAKALLKRKGVEFQEYCIDGDNEAREAMAARANGKRSLPQIFIDDQHIGGCDDIYALDGAGKLDPLLHS", "note": "[L22K]", "effect of a mutation on the interaction": "decreasing interaction strength"},
      {"variant": "MAVSAKIEIYTWSTCPFSMRALALLKRKGVEFQEYCIDGDNEAREAMAARANGKRSLPQIFIDDQHIGGCDDIYALDGAGKLDPLLHS", "note": "[C18S]", "effect of a mutation on the interaction": "decreasing interaction strength"}
    ]},
    {"variants_of": "B2", "conditions": "with glrx2_syny3 glrx2, P73492", "values": [
      {"variant": "MANLFNWLPLLSGRQADGIKAKVEIYTWQTSPFCIRAKLLLWWKGVKFIEYKIDGDDQARQAMAARAEGRRTVPQIFVNDQGIGGCDQLYGLDSRGQLDPLLATPPNPA", "note": "[C31S]", "effect of a mutation on the interaction": "decreasing interaction strength"},
      {"variant": "MANLFNWLPLLSGRQADGIKAKVEIYTWQTCPFCIRAKLLLWWKGVKFIEYKIDGDDQARQAMAARAEGRRTVPQIFVNDQGIGGSDQLYGLDSRGQLDPLLATPPNPA", "note": "[C86S]", "effect of a mutation on the interaction": "disrupting interaction strength"},
      {"variant": "MANLFNWLPLLSGRQADGIKAKVEIYTWQTCPFSIRAKLLLWWKGVKFIEYKIDGDDQARQAMAARAEGRRTVPQIFVNDQGIGGCDQLYGLDSRGQLDPLLATPPNPA", "note": "[C34S]", "effect of a mutation on the interaction": "disrupting interaction strength"}
    ]}
  ]
}
